The target in the series is SlTAGL1-His (Solanum lycopersicum, UniProt E9JUM2 1-269). The series can be described thus: EMSA; not given; Beyotime EMSA/Gel-Shift kit and Thermo LightShift Chemiluminescent EMSA kit. The conditions noted are these: protein: recombinant; tags: His (pET28a); chain copies: 2; label: biotin 3'; blunt. On the technique in general: A gel shift assay detects complexes by their altered migration in electrophoresis.
SlTAGL1-His, sequence (E9JUM2 entry or part of it): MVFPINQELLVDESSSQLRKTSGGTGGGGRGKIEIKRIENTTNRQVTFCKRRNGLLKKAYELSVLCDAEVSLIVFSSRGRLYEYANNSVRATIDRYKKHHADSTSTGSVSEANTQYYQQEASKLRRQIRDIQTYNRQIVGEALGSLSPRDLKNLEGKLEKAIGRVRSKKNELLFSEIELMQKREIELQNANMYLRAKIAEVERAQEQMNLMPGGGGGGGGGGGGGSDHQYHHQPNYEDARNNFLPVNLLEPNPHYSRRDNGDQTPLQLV

B1: SlPSY1 promoter probe (dsDNA)
DNA 1: GAATTGAGCACTTGGCTTTTGTATATAGCTTCTATGTGTACCAAAATT
DNA 2: AATTTTGGTACACATAGAAGCTATATACAAAAGCCAAGTGCTCAATTC
Consider B1, for which the binding result is reported as “binds”.

The values are drawn from paper PMC12581942, “EIN3-binding F-box protein SlEBF3 modulates resistance against Botrytis cinerea and carotenoid biosynthesis by degradation of BBX20 in tomato”.
